# Publication PMC3081348, “Kaposi's Sarcoma-Associated Herpesvirus-Encoded LANA Down-Regulates IL-22R1 Expression through a Cis-Acting Element within the Promoter Region”
# B1: LBS (37 bp, TR DNA LBS1) (dsDNA)
# DNA 1: GCGGAATTCGGCCCCATGCCCGGGCGGGAGGCGGGAT
# DNA 2: ATCCCGCCTCCCGCCCGGGCATGGGGCCGAATTCCGC
# B2: LBS-like (IL-22R1 promoter -69 to -34) (dsDNA)
# DNA 1: TCCCCGCCCCATGCCCGGGTGGAGCCAGCTGCCAG
# DNA 2: CTGGCAGCTGGCTCCACCCGGGCATGGGGCGGGGA
# B3: mLBS-like (scrambled LBS-like) (dsDNA)
# DNA 1: TCCCCACCGGCTCCGCGCGTGGAGCCAGCTGCCAG
# DNA 2: CTGGCAGCTGGCTCCACGCGCGGAGCCGGTGGGGA
# What was measured:
# [1] = molecular target: T1, LANA-C (C-terminus of LANA) (Kaposi's sarcoma-associated herpesvirus …, UniProt Q9QR71 918-1129); experiment: EMSA; 4 mM Mg2+, poly(dI-dC); EMSA: 20 mM Tris/HCl pH 7.4, 100 mM NaCl, 4 mM MgCl2, 0.25 mM EDTA, 1 mM DTT, 0.5 ug poly(dI-dC), 10% glycerol, 100 ng labeled oligo, 0-400 ng LANA-C, 20 min at room temperature; 6.5% native PAGE on ice; settings: protein: recombinant, tags: His, chain copies: 2, annealed sense and antisense oligos
# T1 sequence (Q9QR71 918-1129): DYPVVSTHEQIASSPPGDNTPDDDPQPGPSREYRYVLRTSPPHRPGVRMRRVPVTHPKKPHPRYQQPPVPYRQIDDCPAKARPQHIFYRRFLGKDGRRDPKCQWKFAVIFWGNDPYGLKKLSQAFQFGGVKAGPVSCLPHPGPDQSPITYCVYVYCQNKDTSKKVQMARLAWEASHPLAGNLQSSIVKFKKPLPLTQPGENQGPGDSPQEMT
# [2] = molecular target: T1, LANA-C (C-terminus of LANA); experiment: EMSA; 4 mM Mg2+, poly(dI-dC); affinity similar to LBS1; EMSA: 20 mM Tris/HCl pH 7.4, 100 mM NaCl, 4 mM MgCl2, 0.25 mM EDTA, 1 mM DTT, 0.5 ug poly(dI-dC), 10% glycerol, 100 ng labeled oligo, 0-400 ng LANA-C, 20 min at room temperature; 6.5% native PAGE on ice; settings: protein: recombinant; tags: His; chain copies: 2; annealed sense and antisense oligos
binder,measurement,setting,value
B1,binding result,[1]; label: 5'-biotin,binds
B2,binding result,[2],binds
B3,binding result,[1],no binding
